# According to patent publication US20140179604A1 (U S A REPRESENTED BY THE DEPARTMENT OF VETERANS AFFAIRS, published 2014):
# Non-standard residues stand in square brackets, D forms with d. No end group written: not given here. *: point of attachment. Desaminotyrosyl = O=C(CCc1ccc(O)cc1)*; NMeY = CN[C@@H](Cc1ccc(O)cc1)C(=O)O; Agmatine = N=C(N)NCCCCN*; Nle = CCCC[C@H](N)C(=O)O; Orn = NCCC[C@H](N)C(=O)O; dAbu = CC[C@@H](N)C(=O)O; Abu = CC[C@H](N)C(=O)O; GABA = NCCCC(=O)O
# Assays:
# [1] = target: T1, GHRH receptor (membrane receptors of human anterior pituitary cells) (human) (UniProt Q02643); experiment: competition with 125I-JV-1-42, human pituitary membranes
# T1 sequence (looked up): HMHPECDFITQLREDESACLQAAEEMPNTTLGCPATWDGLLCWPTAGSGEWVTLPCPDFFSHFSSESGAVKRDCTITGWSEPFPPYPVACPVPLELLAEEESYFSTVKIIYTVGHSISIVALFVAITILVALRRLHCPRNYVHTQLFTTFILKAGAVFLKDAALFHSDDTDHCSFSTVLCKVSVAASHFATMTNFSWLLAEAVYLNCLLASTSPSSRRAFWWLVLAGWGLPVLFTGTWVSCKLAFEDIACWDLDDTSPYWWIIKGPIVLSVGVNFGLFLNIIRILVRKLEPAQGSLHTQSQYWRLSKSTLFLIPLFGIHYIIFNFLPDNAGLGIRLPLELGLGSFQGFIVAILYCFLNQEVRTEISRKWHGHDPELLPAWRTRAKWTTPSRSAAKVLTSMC
# [2] = target: T1, GHRH receptor (membrane receptors of human anterior pituitary cells) (human); experiment: competition with 125I-[His1,Nle27]hGHRH(1-32)NH2, human pituitary membranes
# [3] = target: T2, GHRH receptor (membrane receptors of human anterior pituitary cells) (human, UniProt Q02643 23-423); experiment: competition with 125I-JV-1-42, human pituitary membranes
# T2 construct: whole, on cells; Native receptor in a membrane fraction of purchased normal human pituitaries, not intact cells; also called hGHRH receptor; human pituitary membrane homogenates
# T2 sequence (looked up): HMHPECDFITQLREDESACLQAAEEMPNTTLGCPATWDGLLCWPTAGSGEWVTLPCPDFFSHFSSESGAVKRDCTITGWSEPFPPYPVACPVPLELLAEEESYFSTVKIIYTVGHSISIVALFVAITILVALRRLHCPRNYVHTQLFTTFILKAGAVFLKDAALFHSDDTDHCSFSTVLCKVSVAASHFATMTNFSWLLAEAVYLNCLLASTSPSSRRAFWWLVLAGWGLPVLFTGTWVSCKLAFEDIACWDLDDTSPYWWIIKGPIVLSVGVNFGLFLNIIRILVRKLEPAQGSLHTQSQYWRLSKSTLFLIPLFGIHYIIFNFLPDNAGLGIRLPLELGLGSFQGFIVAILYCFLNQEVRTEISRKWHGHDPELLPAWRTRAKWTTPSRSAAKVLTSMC
# Text: Normal human pituitaries were purchased from the National Hormone and Peptide Program (A. F. Parlow, Los Angeles, County Harbor-UCLA Medical Center, Torrance, Calif.).
# [4] = target: T2, GHRH receptor (membrane receptors of …); experiment: competition with 125I-[His1,Nle27]hGHRH(1-32)NH2, human pituitary membranes
Molecule,IC50 [1] [nM],Relative affinity (Binding potency) vs JI-38 [1] [JI-38 = 1],IC50 [2] [nM],Relative affinity (Binding potency) compared to JI-38 [2] [JI-38 = 1],Relative affinity (Binding potency) compared to hGHRH(1-29) (hGHRH(1-29)NH2 = 1) [2],IC50 [3] [nM],Relative affinity (Binding potency) vs JI-38 [3] [JI-38 = 1],IC50 [4] [nM],Relative affinity (Binding potency) compared to JI-38 [4] [JI-38 = 1],Relative affinity (Binding potency) compared to hGHRH(1-29) [4]
"P-27404 [N-Me-Tyr^1, D-Ala^2, Fpa5^6, Orn^12, Abu^15, Orn^21, Nle^27, Asp^28]hGHRH(1-29)NH-CH3 (peptide)",0.87,5,1.12,2.45,6.83,–,–,–,–,–
"[NMeY][dA]DAIFTQSYR[Orn]VL[Abu]QLSAR[Orn]LLQDI[Nle]D[Agmatine] (also called Peptide 20361) [P-20361 [N-Me-Tyr^1, D-Ala^2, Gln^8, Orn^12, Abu^15, Orn^21, Nle^27, Asp^28, Agm^29]hGHRH(1-29)NH2]",–,–,–,–,–,0.82,5.3,1.19,2.3,6.42 hGHRH(1-29)NH2 = 1
"YADAIFTNSYRKVLGQLSARKLLQDIMSRQ (peptide, from a related filing, N-Me-Tyr^1; Orn^12; Abu^15; Orn^21; Nle^27; Gab^30 (in place of Gln^30); C-terminal -NH-CH3) [P-27415 [N-Me-Tyr^1, Orn^12, Abu^15, Orn^21, Nle^27, Gab^30]hGHRH(1-30)NH-CH3]",3.02,1.44,–,–,–,–,–,–,–,–
"[Desaminotyrosyl][dAbu]DAIFTNSYR[Orn]VL[Abu]QLSAR[Orn]LLQDI[Nle]SR[GABA]-NH2 (SMILES CCCC[C@H](NC(=O)[C@@H](NC(=O)[C@H](CC(=O)O)NC(=O)[C@H](CCC(N)=O)NC(=O)[C@H](CC(C)C)NC(=O)[C@H](CC(C)C)NC(=O)[C@H](CCCN)NC(=O)[C@H](CCCNC(=N)N)NC(=O)[C@H](C)NC(=O)[C@H](CO)NC(=O)[C@H](CC(C)C)NC(=O)[C@H](CCC(N)=O)NC(=O)[C@H](CC)NC(=O)[C@H](CC(C)C)NC(=O)[C@@H](NC(=O)[C@H](CCCN)NC(=O)[C@H](CCCNC(=N)N)NC(=O)[C@H](Cc1ccc(O)cc1)NC(=O)[C@H](CO)NC(=O)[C@H](CC(N)=O)NC(=O)[C@@H](NC(=O)[C@H](Cc1ccccc1)NC(=O)[C@@H](NC(=O)[C@H](C)NC(=O)[C@H](CC(=O)O)NC(=O)[C@@H](CC)NC(=O)CCc1ccc(O)cc1)[C@@H](C)CC)[C@@H](C)O)C(C)C)[C@@H](C)CC)C(=O)N[C@@H](CO)C(=O)N[C@@H](CCCNC(=N)N)C(=O)NCCCC(N)=O, also called MR-504; Peptide 25504) [P-25504 [Dat^1, D-Abu^2, Orn^12, Abu^15, Orn^21, Nle^27, Gab^30]hGHRH(1-30)NH2]",–,–,–,–,–,1.44,3.02,2.85,0.96,2.68 hGHRH(1-29)NH2 = 1
"Ac-[NMeY][dA]DAIFTQSYR[Orn]VL[Abu]QLSAR[Orn]LLQDI[Nle]D[Agmatine] (SMILES CCCC[C@H](NC(=O)[C@@H](NC(=O)[C@H](CC(=O)O)NC(=O)[C@H](CCC(N)=O)NC(=O)[C@H](CC(C)C)NC(=O)[C@H](CC(C)C)NC(=O)[C@H](CCCN)NC(=O)[C@H](CCCNC(=N)N)NC(=O)[C@H](C)NC(=O)[C@H](CO)NC(=O)[C@H](CC(C)C)NC(=O)[C@H](CCC(N)=O)NC(=O)[C@H](CC)NC(=O)[C@H](CC(C)C)NC(=O)[C@@H](NC(=O)[C@H](CCCN)NC(=O)[C@H](CCCNC(=N)N)NC(=O)[C@H](Cc1ccc(O)cc1)NC(=O)[C@H](CO)NC(=O)[C@H](CCC(N)=O)NC(=O)[C@@H](NC(=O)[C@H](Cc1ccccc1)NC(=O)[C@@H](NC(=O)[C@H](C)NC(=O)[C@H](CC(=O)O)NC(=O)[C@@H](C)NC(=O)[C@H](Cc1ccc(O)cc1)N(C)C(C)=O)[C@@H](C)CC)[C@@H](C)O)C(C)C)[C@@H](C)CC)C(=O)N[C@@H](CC(=O)O)C(=O)NCCCCNC(=N)N, also called MR-351; Peptide 20351)",–,–,–,–,–,3.44,1.26,3.87,0.71,1.98 hGHRH(1-29)NH2 = 1
"[Desaminotyrosyl][dA]DAIFTQSYR[Orn]VL[Abu]QLSAR[Orn]LLQDI[Nle]DR-NHMe (SMILES CCCC[C@H](NC(=O)[C@@H](NC(=O)[C@H](CC(=O)O)NC(=O)[C@H](CCC(N)=O)NC(=O)[C@H](CC(C)C)NC(=O)[C@H](CC(C)C)NC(=O)[C@H](CCCN)NC(=O)[C@H](CCCNC(=N)N)NC(=O)[C@H](C)NC(=O)[C@H](CO)NC(=O)[C@H](CC(C)C)NC(=O)[C@H](CCC(N)=O)NC(=O)[C@H](CC)NC(=O)[C@H](CC(C)C)NC(=O)[C@@H](NC(=O)[C@H](CCCN)NC(=O)[C@H](CCCNC(=N)N)NC(=O)[C@H](Cc1ccc(O)cc1)NC(=O)[C@H](CO)NC(=O)[C@H](CCC(N)=O)NC(=O)[C@@H](NC(=O)[C@H](Cc1ccccc1)NC(=O)[C@@H](NC(=O)[C@H](C)NC(=O)[C@H](CC(=O)O)NC(=O)[C@@H](C)NC(=O)CCc1ccc(O)cc1)[C@@H](C)CC)[C@@H](C)O)C(C)C)[C@@H](C)CC)C(=O)N[C@@H](CC(=O)O)C(=O)N[C@@H](CCCNC(=N)N)C(=O)NC, also called MR-408; MR408) [P-27408 [Dat^1, D-Ala^2, Gln^8, Orn^12, Abu^15, Orn^21, Nle^27, Asp^28]hGHRH(1-29)NH-CH3]",–,–,–,–,–,0.55,7.91,6.32,0.53,1.21 hGHRH(1-29)NH2 = 1
